A short description of this data set: soluble on expression in E. coli; label from the status in PepcDB or PDB records.
As to “MGSDKIHHHHHHMNFETVIGLEVHVELKTKSKIFSSSPTPFGAEANTQTSVIDLGYPGVLPVLNKEAVEFAMKAAMALNCEIATDTKFDRKNYFYPDNPKAYQISQFDKPIGENGWIEIEVGGKTKRIGITRLHLEEDAGKLTHTGDGYSLVDFNRQGTPLVEIVSEPDIRTPEEAYAYLEKLKSIIQYTGVSDCKMEEGSLRCDANISLRPIGQEEFGTKTELKNLNSFAFVQKGLEHEEKRQEQVLLSGGVIQQETRRYDEATKKTILMRVKEGSDDYRYFPEPDLVELYIDDEWKERVKASIPELPDERRKRYIEELGLPAYDAMVLTLTKEMADFFEETVQKGAEAKQASNWLMGEVSAYLNAEQKELADVALTPEGLAGMIKLIEKGTISSKIAKKVFKELIEKGGDAEKIVKEKGLVQISDEGVLLKLVTEALDNNPQSIEDFKNGKDRAIGFLVGQIMKASKGQANPPMVNKILLEEIKKR”, the “soluble on expression in E. coli” value is on record as “not soluble”. In the case of “MVGIHQEVWLEVDLEFTKKMKIPVVRRDLGGGTVVITPGEHDYFIVVRQEDAPRNPSELYKKFLTPIVNVLRSYGLKADLRDQDIVVNGKKISGNGAMTHGNSIVIAGNILLSLDIDL”, the “soluble on expression in E. coli” value is reported as “soluble”. To “MSGDDDIPEGLEAINLKMNATTDDSLESTRRMLALCEESKEAGIKTLVMLDDQGEQLERCEGALDTINQDMKEAEDHLKGMEKCCGLCVLPWNKTDDFEKTEFAKAWKKDDDGGVISDQPRITVGDSSMGPQGGYITKITNDAREDEMDENVQQVSTMVGNLRNMAIDMSTEVSNQNRQLDRIHDKAQSNEVRVESANKRAKNLITK” belongs “not soluble”; to “MSNSQAGPGASVRRVLAVIPARGGSKGVPAKNLAPVGGVPLVVRAVRECLAARLVTDVVVSTDDQAIAAAAREAGAEVVLRPAAIAGDTATSEAAVLHAMDAHEALHGAAVDVVLLVQCTSPFLVREDVDGVAGAVVEDGADTAVTVAPFHGFVWRDGADEPGGADGGHGVNHDKAYRPRRQDRPQDLLETGAAYAMAAPGFRKHRHRFFGRTDLVRTDPARVLEIDDPHDLARARALAPHFDTARPGALPTAADIDAVVLDFDGTQTDDRVLIDTDGREFVSVHRGDGLGIAALRRSGLTMLILSTEVNPVVAARARKLKLPVLHGIDRKDLALKQWCEEQGIAPERVLYVGNDVNDLPCFALVGWPVAVASAHDAVRGAARAVTTVPGGEGAVREIAAWLLGPSLDALGPASETTPTLTQSKLEHHHHHH”, “soluble”. To “SKSINVDQISIRSLSEPANPFSFWQWIFIYLPGLKEDEKQEILTHEQTHVRQWHSIDVIISEIVNIICWMNPFAWLLKTEIRLNLEYLADHKVMESGTNKKAYQYHLLGLA” belongs “not soluble”; to “MGHHHHHHSHMEWKVKIRSDGTRYITKRPVRDRILKERALKIKEERSGMTTDDDTMSEMKMGRYWSKEERKQHLVRAKEQRRRREFMMRSRLECLKESPQSGSEGKKEINIIELSHKKMMKKRNKKILDNWMTIQELMTHGAKSPDGTRVHNAFLSVTTV”, “not soluble”; to “RSFDTKQEHGISPKPTYSRIKANYFSFGYFVGRVLPYQLFDLSRIPAFKQPAPSKIGQGSVQNIVLIMGESESAAHLKLFGYGRETSPFLTRLSQADFKPIVKQS”, “not soluble”. To “MAIAYFIPDQAQLLARSYQQNGQQTAASPRTTATAAAPSQQQQQSQQQQQQQRHHHQQQRPQFRANISVPLGSQQGSMTMSEFGCWDLLAQIFCYALRIYSYSSSQRQPTVIQISFEISSGGQNNDEDDVTDATSKEN” belongs “not soluble”. On to “MGSRENLYFQGLEHHHHHHHMGHETKAQLKDYVEVKIMKIKTTVAALSVLSVLSFGAFAADSIDAAQAQNREAIGTVSVSGVASSPMDMREMLNKKAEEKGATAYQITEARSGDTWHATAELYK”, for which the “soluble on expression in E. coli” value is “soluble”.

For “MRPMALPAWREVALPHEDIRRGRFDESTFAADLADVLAGRGPLEYRDPLTFFRKTYPTKGMVRLLGAVVRRLSGEKGGEPVVQIQTPFGGGKTHGLVALYHLFRSGEEARGTELYARVLEEAGVERIPEAKVAVFVGTAADPLKGRTPWGELALQLGHYGLLEEHDKARQAPGKERLYELFRAAGGPVLILMDEVAEYVARTVDPTALHKEGGSLEGGRAYQTQVLAFFQELTEAVKVAPQVALVMTIPSSAPYGEEGERALLQLQRIAGRLEAIYEPVKGWEIYDVIRTRLFEGIRDEGVVRKVAERYFELYRRLGTEVPDEARDPAYRERMRRAYPFHPELIDALYERWGTLSTFQRTRGVLRFLAEIVADLYGREHSAPLIHSAHVNLANPSIRRELVKHIGNEFDSVIAADIADPEGQAKAQRLDREMGSEYVRFQVASGLATAIFLYSFSGGERKGASPAQLRLAALRPEVPPPLVGDALGRLRELLWYLHEASGLYYFSSQPNLNRIVVERENAVDPEQIRQALRERLERIAGRELRVYLEPHSPQDVPDTKELKLAVLSEPSGSLAEELLEKAGTTFRTYKNTLFLLSPDPNSLGDLHRAARRYLALRSIREDRTLYGQLSAENRHRLDELLREADGALTQKLFMAYRRLTKPGRQGPETYDMGIPTVGEASTLAKRVYEYLKAREFLLERIAPRHLLSALAQGETGKPLQEVYEAFLRYPHLPVLKGWEVLEEAVRKGVAEGTFGLRVGERYYFQEPVLGIAWEEAFLVRKEALPPERESVVDGEKKGEASSEGVAPKPDSSEEEVPPDSSGGEARPERVQEYTVKVRLPWNRLSDFLRGVLMPLQREGAEMELQIELRARSQEGIPRATLDKIRETLDQLQAKVEEA”, the “soluble on expression in E. coli” value is “soluble”. To “MGSDKIHHHHHHTDDEEKDNNGQGSVSVETNYLPIADPYVMFYNNKYYAYGTGGTTAGEGFACFSSDDLKNWKREGQALSATDSYGTWGFWAPEVYYVESKKKFYLFYSAEEHICVATSTTPEGPFRQEVKQPIWSEKSIDTSLFIDDDGTPYLYFVRFTDGNVIWVAQMTDDLMSIKTETLNQCIKAEVSWELLQGKVAEGPSLLKKNGVYYLIYSANHYENKGYGVGYATSDTPMGPWVKYSKNPLLQGDAATGLVGTGHGAPFQCKDGSWKYIFHAHWSAAEIQPRTSYIKDFAISDQGVVTISGTVIKPRVLK” belongs “not soluble”; to “MSADLKQSRLADWRQRALAFEREVGKAVIGLERPIRHILIAVFARGHVMLEGDVGVGKTTLLRAVARCLGGAYERVEGTIDLMPNDLVYHTYINELGKPQVEPGPVLKHGEELSVFFFNEVNRARPQVHSLLLRIMAEHAVSAFNREHFFPYLQVFADRNRVEKEETFEIPSAARDRFMMELHVETPADPALRRALMFDPKFHDVDRLLDTLTPGILPYREIPQIAPVIQQSVTASETLQQYALDLWEATRRPADYGVKLEGIDMDRLILAGASARGVSMMMRAARVAAWLDGRDYLVPEDIHDVFRETIGHRVFFNPVYELRRTALIDELLHAIRQKVAAPLEHHHHHH”, “soluble”; to “MRNTDRKRAQGVSRLDRRDSRMRRVGTYGGRKLIEYDQERWNILAEKRERAKEVMESLLSFGIESVVYGSVARGDVNEKSDVDIFIPEVIPSYKVEVALDGFEVLEKRIVQATPNYAIKGEFVLSDNTTVSFPLVRMREREMDFYRFGGCVDYRGLMEKRRVPGVDKRLVLIIPTGKGHREIPLTDIHPSSVARMLGVSIDIVTERIRVLTRRREVGRTGIFLCETIPSTDCFEQALKEIASRNPAVRRRLD”, “not soluble”. Turning to “HRRNATSLQLSRCANIADRTGLDALGGRRHSRRCPPPQRGLAAIKPLRQHRRRPVRSHIGGNQFADLPHQVDAFVHGKTDAVMLQPRQHAAKRGLRSIVRHFFIRQYRSLIIKRRAHTPGIRQLYRIAHCLRRPVLCGEPFYGFLFESNPLRLIEAV”, the “soluble on expression in E. coli” value is “not soluble”. As for “MAHHHHHHSLIKSMTGFSRVEKVSGPYQFRVEMKSLNSKGLNIINQLPGYLSMKEIELNNLVQEYVSRGKVQTRVQVKFLEPPKVLEIDKNVVRAYYSMLDEIVGELSLPEPVKLSDLLNFREVFRIELSDEEIENIWNHLVPILREALEKLVEERKKEGQKIGADLKRILEDLSSRVEEIEKISDQLPALYREKIKEEVEKILPQDVSVKEDILENHVAFMATKADIREEITRLRSHIKRALELIESDEPVGMNLDFLGQEMLRELNTILSKSISGEITSLALEGKVLVSQFREQIQNVEEG”, the entry is “soluble”; as for “MSLYNDSLFNAFARSFEARSQHDMSMAEYLESCRSDPMKYANAAERLLAAIGEPQTIDTAKDPRLGRIFLNRTIRTYPAFAGFYGMEETIERIVGFFRHAAQGLEERKQILYLLGPVGGGKSSLAERLKSLMEVHPIYVLKAGDELSPVFESPLSLFDPDQLGPMLEEKYGIPRRRLTGLMSPWCYKRLEAFGGDISQFRVAKIQPSRLRQIAIAKTEPGDENNQDISSLVGKVDIRKLETYAQNDPDAYSYSGGLNRANQGILEFVEMFKAPIKMLHPLLTATQEGNYIGTENIGAIPFTGIILAHSNEAEWASFKANKNNEAFIDRICVIKVPYVLRVTEEQKIYEKLIQGSELASAPCAPSTLETMARFSVMSRLRKHENSTVFGKMRVYDGESLKESDPKARSVQEYRDAAGVDEGMDGVSTRFAFKILAATFNHDPQEVAADAVHLMYALEQSIKREQLPEEVEKRYLEFIKADLAPRYAEFIGNEIQKAYLESYSDYGQNLFDRYVDYADAWIEDQDFKDPDTGQLLDRELLNQELTKIEKPAGIANPKDFRNEVVKFSLRSRAQNGGKNPTWTSYEKIRDVIEKRIFSQVEDLLPVISFGSKKDGETEKKHGEFVARMVERGYTERQVRRLVEWYMRVKQAGEGHHHHHH”, “soluble”.

Take “MSDFRLKVFLSVAKNLSFTKASQELFVSQPAITKHIQELETCYQVRLFDRQGNKISLTEAGKLLQEHSEKILEDYKRLEYEMHLLHNEYIGDLKLGASTTISQYVLPPLLANFIAKFPQVNLSLLNGNSREIEAALQEHRIDLGLVEGICRLPNLRYTTFLQDELVAVVHTGSKLSLPDEITPEDLSRIPLVLRERGSGTLDVFERALSEHNMKLSSLNVLLYLGSTESIKLFLEHTDCIGIVSIRSISRELLSGTFRVIEIKGMPMLREFCFAQPQGQESGLSQVLMQFAMHHNKKL”: the “soluble on expression in E. coli” value is “not soluble”. To “MTVPIAIIGTGIAGLSAAQALTAAGHQVHLFDKSRGSGGRMSSKRSDAGALDMGAQYFTARDRRFATAVKQWQAQGHVAEWTPLLYNFHAGRLSPSPDEQVRWVGKPGMSAITRAMRGDMPVSFSCRITEVFRGEEHWNLLDAEGQNHGPFSHVIIATPAPQASTLLAAAPKLASVVAGVKMDPTWAVALAFETPLQTPMQGCFVQDSPLDWLARNRSKPERDDTLDTWILHATSQWSRQNLDASREQVIEHLHGAFAELIDCTMPAPVFSLAHRWLYARPAGAHEWGALSDADLGIYVCGDWCLSGRVEGAWLSGQEAARRLLEHLQLEHHHHHH” belongs “soluble”; to “MDANEKKEVIKKKYQEIAILGGSCCSGGCCGDSNSTDLSRSLGYSESDVQAVPDANMGLGCGNPTAFAELKPGDVVLDLGSGGGFDCFLAAQKIGSSGKVIGVDMTLEMVEKAQANARKYGYSNVEFRHGDIESLPVKDSSVDVIISNCVINLAPDKEKVFREAFRVLKPEGRMYISDMVLLDELPEELKNDSELLAGCIAGAVLKEEYLGLLKKAGFSVEILNEDLDISKRQYRDLPVESLKLKARVLEHHHHHH”, “soluble”.

The record behind these values is the DeepSol protein solubility set.
